T1: mouse platelet glycoprotein I(b)α (GPIbα) on wild-type mouse platelets (mouse, UniProt O35930 17-734)
T1 construct: whole, on cells; also called mouse GPIbα
T1 sequence (looked up): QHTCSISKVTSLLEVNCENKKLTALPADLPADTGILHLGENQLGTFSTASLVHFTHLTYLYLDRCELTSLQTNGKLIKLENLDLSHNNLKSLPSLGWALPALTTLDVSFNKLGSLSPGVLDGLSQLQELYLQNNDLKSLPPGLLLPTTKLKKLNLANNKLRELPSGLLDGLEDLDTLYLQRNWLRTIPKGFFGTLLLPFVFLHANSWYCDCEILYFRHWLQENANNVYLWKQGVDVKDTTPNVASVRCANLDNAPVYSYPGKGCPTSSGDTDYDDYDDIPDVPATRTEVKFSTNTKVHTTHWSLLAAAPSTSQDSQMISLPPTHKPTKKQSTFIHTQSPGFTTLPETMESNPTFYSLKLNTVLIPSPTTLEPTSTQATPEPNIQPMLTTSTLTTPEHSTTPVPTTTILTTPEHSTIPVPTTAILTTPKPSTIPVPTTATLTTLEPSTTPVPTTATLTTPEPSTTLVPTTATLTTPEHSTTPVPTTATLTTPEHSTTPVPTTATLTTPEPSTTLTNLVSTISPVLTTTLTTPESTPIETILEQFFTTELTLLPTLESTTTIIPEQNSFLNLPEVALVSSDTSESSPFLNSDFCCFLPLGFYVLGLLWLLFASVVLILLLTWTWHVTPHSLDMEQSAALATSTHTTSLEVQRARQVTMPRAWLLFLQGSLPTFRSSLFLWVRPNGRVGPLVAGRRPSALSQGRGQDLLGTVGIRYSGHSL

T2: dog platelet glycoprotein I(b)α (GPIbα) on dog platelets (dog, UniProt Q28256 17-677)
T2 construct: whole, on cells; also called dog GPIbα
T2 sequence (looked up): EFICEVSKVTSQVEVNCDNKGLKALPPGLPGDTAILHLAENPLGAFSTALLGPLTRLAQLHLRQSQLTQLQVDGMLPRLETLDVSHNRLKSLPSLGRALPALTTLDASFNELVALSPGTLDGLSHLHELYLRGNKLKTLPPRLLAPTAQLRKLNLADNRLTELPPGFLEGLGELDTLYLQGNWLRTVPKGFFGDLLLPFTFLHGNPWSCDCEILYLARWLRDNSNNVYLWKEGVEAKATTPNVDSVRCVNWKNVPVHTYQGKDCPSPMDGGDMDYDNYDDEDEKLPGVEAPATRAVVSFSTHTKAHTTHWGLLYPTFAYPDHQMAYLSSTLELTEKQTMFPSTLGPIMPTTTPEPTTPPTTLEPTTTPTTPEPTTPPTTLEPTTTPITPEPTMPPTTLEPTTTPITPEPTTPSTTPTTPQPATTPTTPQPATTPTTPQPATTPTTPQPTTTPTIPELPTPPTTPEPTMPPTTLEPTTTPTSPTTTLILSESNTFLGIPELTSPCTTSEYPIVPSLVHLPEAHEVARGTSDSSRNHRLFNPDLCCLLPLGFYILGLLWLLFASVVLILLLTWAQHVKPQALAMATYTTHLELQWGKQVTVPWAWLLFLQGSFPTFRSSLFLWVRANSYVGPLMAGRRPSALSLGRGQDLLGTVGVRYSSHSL

B1: humanized Fab H004 (Fab, V domains shown)
VH: EVQLVESGGGLVQPGGSLRLSCAASGFTFSSFAMSWVRQAPGKGLEWVSSITSAGTPYYPDSVLGRFTISRDNSKNTLYLQMNSLRAEDTAVYYCAKSRGYEDYFDYWGQGTLVTVSS
VL: DIQMTQSPSSLSASVGDRVTITCKSSQSLLNSRNQKNYLAWYQQKPGKAPKLLIYFTSTRESGVPSRFSGSGSGTDFTLTISSLQPEDFATYYCQQHYSSPWTFGQGTKVEIKR
notes: Fab with human IgG1 CH1 and human kappa constant region; also called VH3 + VL2
B2: humanized Fab H005 (Fab, V domains shown)
VH: EVQLVESGGGLVQPGGSLRLSCAASGFTFSSFAMSWVRQAPGKGLEWVSSITSAGTPYYPDSVLGRFTISRDNSKNTLYLQMNSLRAEDTAVYYCAKSRGYEDYFDYWGQGTLVTVSS
VL: DIVMTQSPLSLPVTPGEPASISCKSSQSLLNSRNQKNYLAWYLQKPGQSPQLLIYFTSTRESGVPDRFSGSGSGTDFTLKISRVEAEDVGVYYCQQHYSSPWTFGQGTKVEIKR
notes: Fab with human IgG1 CH1 and human kappa constant region; also called VH3 + VL3
B3: humanized Fab H003 (Fab, V domains shown)
VH: EVQLVESGGGLVKPGGSLRLSCAASGFTFSSFAMSWVRQAPGKGLEWVSSITSAGTPYYPDSVLGRFTISRDNAKNSLYLQMNSLRAEDTAVYYCARSRGYEDYFDYWGQGTTVTVSR
VL: DIVMTQSPDSLAVSLGERATINCKSSQSLLNSRNQKNYLAWYQQKPGQPPKLLIYFTSTRESGVPDRFSGSGSGTDFTLTISSLQAEDVAVYYCQQHYSSPWTFGGGTKLEIKR
notes: Fab with human IgG1 CH1 and human kappa constant region; also called VH2 + VL1
B4: humanized Fab H007 (Fab, V domains shown)
VH: QVQLVESGGGVVQPGRSLRLSCAASGFTFSSFAMSWVRQAPGKGLEWVASITSAGTPYYPDSVLGRFTISRDNSKNTLYLQMNSLRAEDTAVYYCARSRGYEDYFDYWGQGTLVTVSS
VL: DIQMTQSPSSLSASVGDRVTITCKSSQSLLNSRNQKNYLAWYQQKPGKAPKLLIYFTSTRESGVPSRFSGSGSGTDFTLTISSLQPEDFATYYCQQHYSSPWTFGQGTKVEIKR
notes: Fab with human IgG1 CH1 and human kappa constant region; also called VH4 + VL2
B5: humanized Fab H006 (Fab, V domains shown)
VH: QVQLVESGGGVVQPGRSLRLSCAASGFTFSSFAMSWVRQAPGKGLEWVASITSAGTPYYPDSVLGRFTISRDNSKNTLYLQMNSLRAEDTAVYYCARSRGYEDYFDYWGQGTLVTVSS
VL: DIVMTQSPDSLAVSLGERATINCKSSQSLLNSRNQKNYLAWYQQKPGQPPKLLIYFTSTRESGVPDRFSGSGSGTDFTLTISSLQAEDVAVYYCQQHYSSPWTFGGGTKLEIKR
notes: Fab with human IgG1 CH1 and human kappa constant region; also called VH4 + VL1
B6: humanized Fab H002 (Fab, V domains shown)
VH: QVQLVESGGGLVKPGGSLRLSCAASGFTFSSFAMSWIRQAPGKGLEWVSSITSAGTPYYPDSVLGRFTISRDNAKNSLYLQMNSLRAEDTAVYYCARSRGYEDYFDYWGQGTLVTVSS
VL: DIVMTQSPLSLPVTPGEPASISCKSSQSLLNSRNQKNYLAWYLQKPGQSPQLLIYFTSTRESGVPDRFSGSGSGTDFTLKISRVEAEDVGVYYCQQHYSSPWTFGQGTKVEIKR
notes: Fab with human IgG1 CH1 and human kappa constant region; also called Fab H002 antibody; VH1 + VL3
B7: humanized Fab H001 (Fab, V domains shown)
VH: QVQLVESGGGLVKPGGSLRLSCAASGFTFSSFAMSWIRQAPGKGLEWVSSITSAGTPYYPDSVLGRFTISRDNAKNSLYLQMNSLRAEDTAVYYCARSRGYEDYFDYWGQGTLVTVSS
VL: DIQMTQSPSSLSASVGDRVTITCKSSQSLLNSRNQKNYLAWYQQKPGKAPKLLIYFTSTRESGVPSRFSGSGSGTDFTLTISSLQPEDFATYYCQQHYSSPWTFGQGTKVEIKR
notes: Fab with human IgG1 CH1 and human kappa constant region; also called Fab H001 antibody; VH1 + VL2
B8: humanized Fab H008 (Fab, V domains shown)
VH: QVQLVESGGGVVQPGRSLRLSCAASGFTFSSFAMSWVRQAPGKGLEWVASITSAGTPYYPDSVLGRFTISRDNSKNTLYLQMNSLRAEDTAVYYCARSRGYEDYFDYWGQGTLVTVSS
VL: DIVMTQSPLSLPVTPGEPASISCKSSQSLLNSRNQKNYLAWYLQKPGQSPQLLIYFTSTRESGVPDRFSGSGSGTDFTLKISRVEAEDVGVYYCQQHYSSPWTFGQGTKVEIKR
notes: Fab with human IgG1 CH1 and human kappa constant region; also called VH4 + VL3

Assays:
[1] = target: T3, human platelet glycoprotein I(b)α (GPIbα) on human platelets (human, UniProt P07359 17-652); experiment: flow cytometry on washed platelets, 2.5-5 µg/mL, FITC anti-human-Fab detection
T3 construct: whole, on cells; also called human GPIbα
Method: (§1) Specificity. Human and mouse platelet-rich plasma (PRP) was prepared by centrifugation at 300 g for 7 min, and was washed by transferring 200 µL PRP into 10 mL PBS followed with 800 g centrifugation for 10 min. The supernatant was then removed and platelets were re-suspended in 200 µL PBS. Washed platelets (10 µL) were incubated with the different antibodies (2.5-5 µg/mL) in a 200 µL system at room temperature for 30 min, and detected by FITC labeled anti-human-Fab antibody. These eight selected humanized Fabs H001-H008, the scFv and the chimeric protein all bound to both human and wild-type mouse platelets, but not GPIbα deficient mouse platelets, indicating the specificity of the humanized Fabs to platelet GPIbα (FIGS. 4 and 19).

[2] = target: T1, mouse platelet glycoprotein I(b)α …; experiment: flow cytometry, washed wild-type mouse platelets, Fab 5 µg/mL, FITC anti-human-Fab detection
Method: as §1

[3] = target: T2, dog platelet glycoprotein I(b)α (GPIbα) …; experiment: flow cytometry, dog platelets from PRP, FITC anti-human kappa chain detection
Method: (§2) Platelets (2×10^5) from mouse, dog, human, rat and rabbit PRP were transferred into 200 µL PBS containing a serial concentration of the Fabs H001 or H002 at 50, 16.7, 5.6, 1.8, 0.6, 0.2 nM (for mouse and dog), at 200, 67, 22, 7.4, 2.5, 0.8, 0.3, 0.1 nM (for human and rat) and at 500, 100, 20, 4, 0.8 nM (for rabbit). After a 30 min incubation, a detection antibody (FITC-labeled anti-human Kappa chain, 1:200) was added and incubated in darkness for 15 min. Flow cytometry was performed using the BD LSR Fortessa™ X-20. H001 and H002 also bound to rat, dog and rabbit platelets (FIG. 5).

[4] = target: T4, rat platelet glycoprotein I(b)α (GPIbα) on rat platelets (rat); experiment: flow cytometry, rat platelets from PRP, FITC anti-human kappa chain detection
T4 construct: whole, on cells; also called rat GPIbα
Method: as §2

[5] = target: T1, mouse platelet glycoprotein I(b)α …; experiment: flow cytometry, mouse platelets from PRP, FITC anti-human kappa chain detection
Method: as §2

[6] = target: T3, human platelet glycoprotein I(b)α …; experiment: flow cytometry, human platelets from PRP, FITC anti-human kappa chain detection
Method: as §2

[7] = target: T5, recombinant hexa-histidine tagged GPIbα; experiment: SPR, size of shifts against concentration, one site binding model
T5 construct: Held on a Ni-NTA SPR sensor by its hexa-histidine tag; also called recombinant GPIbα; immobilized GPIbα
Method: The SPR experiments were performed on a Biosensing Instrument 4000 SPR. The functionalized biosensors were loaded onto the instrument and the biosensor was equilibrated with running buffer (10 mM tris(hydroxymethyl) aminomethane, 140 mM NaCl, 20 mM Imidazole pH=7.4) at a flow rate of 40 μL/min. For binding measurements 25 μL of 500 nM hexa-histidine tagged GPIbα was injected over the biosensing surface immobilizing the GPIbα to the SPR sensor surface. The baseline was allowed to equilibrate followed by injection of 25 μL of the desired concentration of ligand (either Fab H001 or control). Biosensing surfaces were regenerated between ligand injections by injection of 100 μL of 500 mM imidazole in running buffer, followed by 100 μL of 100 mM NiCl_2. The resulting data was analyzed using the instrument included SPR analysis software.
GPIbα immobilized SPR biosensors were exposed to 500, 100, 50 and 10 nM of Fab H001 antibody and 100 nM control antibody (PSI E1, an antibody against GPIIbIIIa). […] In contrast the Fab H001 antibody clearly bound GPIbα producing clear SPR shifts with only partial dissociation after the end of the injection (FIG. 7A).

[8] = target: T5, recombinant hexa-histidine tagged GPIbα; experiment: SPR, His-tagged GPIbα held on Ni-NTA sensor, kinetics binding model
Method: (§3) The biosensors were rinsed with copious amounts of anhydrous ethanol followed by 16 hour incubation in a solution of 1 mM mercaptopropionic acid in dimethylformamide. Following the incubation, SPR biosensors were rinsed with copious amounts of dimethylformamide followed by anhydrous ethanol and finally ddH₂O. The biosensors were then incubated in 40 mM 1-Ethyl-3-(3-dimethylaminopropyl) carbodiimide and 20 mM N-Hydroxysuccinimide dissolved in ddH₂O for 1 hour. Sensors were then rinsed with copious amounts of ddH₂O and then incubated with 100 mM Nα,Nα-Bis(carboxymethyl)-L-lysine hydrate for 4 hour. Following the incubation, the biosensing surfaces were rinsed with ddH2O. The final step before SPR experiments was to expose the functionalized biosensing surfaces with 100 mM NiCl₂ for 1 hour.
(§4) The SPR experiments were performed on a Biosensing Instrument 4000 SPR. The functionalized biosensors were loaded onto the instrument and the biosensor was equilibrated with running buffer (10 mM tris(hydroxymethyl) aminomethane, 140 mM NaCl, 20 mM Imidazole pH=7.4) at a flow rate of 40 μL/min. For binding measurements 25 μL of 500 nM hexa-histidine tagged GPIbα was injected over the biosensing surface immobilizing the GPIbα to the SPR sensor surface. […] The resulting data was analyzed using the instrument included SPR analysis software. […]

[9] = target: T5, recombinant hexa-histidine tagged GPIbα; experiment: SPR steady-state response against H001 concentration, His-tagged GPIbα immobilised
Method: as §3, §4

T3 sequence (P07359 17-652): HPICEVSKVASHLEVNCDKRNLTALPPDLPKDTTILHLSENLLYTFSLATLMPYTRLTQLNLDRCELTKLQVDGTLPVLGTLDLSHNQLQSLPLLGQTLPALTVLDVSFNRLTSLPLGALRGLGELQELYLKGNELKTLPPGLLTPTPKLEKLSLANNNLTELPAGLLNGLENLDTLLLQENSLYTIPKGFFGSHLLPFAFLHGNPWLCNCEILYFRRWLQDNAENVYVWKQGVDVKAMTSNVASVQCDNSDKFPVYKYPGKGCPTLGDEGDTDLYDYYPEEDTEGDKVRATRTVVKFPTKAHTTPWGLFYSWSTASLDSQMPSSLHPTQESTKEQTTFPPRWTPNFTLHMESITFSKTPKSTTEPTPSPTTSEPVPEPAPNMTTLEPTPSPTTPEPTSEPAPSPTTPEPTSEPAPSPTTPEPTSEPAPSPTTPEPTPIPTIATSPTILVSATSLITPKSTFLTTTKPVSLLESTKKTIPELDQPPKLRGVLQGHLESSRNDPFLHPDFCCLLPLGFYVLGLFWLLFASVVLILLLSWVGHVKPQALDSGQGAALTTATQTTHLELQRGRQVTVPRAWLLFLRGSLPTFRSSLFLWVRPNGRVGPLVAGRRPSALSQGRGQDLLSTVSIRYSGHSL
T5 sequence (P07359 17-652): as above

Binder | binding result [1] | binding result [2] | also measured
B1 | binds | binds | 
B2 | binds | binds | 
B3 | binds | binds | 
B4 | binds | binds | 
B5 | binds | binds | 
B6 |  |  | EC50 (read off the curve) [3]: ~2 nM; EC50 (read off the curve) [4]: ~3 nM; binding result [5]: binds; binding result [6]: binds
B7 |  | binds | Kd [7]: 8 nM; Kd [8]: 4.4 nM; koff [8]: 0.11 s⁻¹; EC50 (read off the curve) [3]: ~3 nM; EC50 (read off the curve) [4]: ~3 nM; EC50 (read off the curve) [6]: ~10 nM; EC50 (read off the curve) [9]: ~80 nM
B8 | binds | binds | 

— patent publication US12617863 (CCOA THERAPEUTICS, dated 2026)
